Legend:
[1] = molecular target: DosR K182Q K182Q (Mycobacterium tuberculosis H37Rv) (UniProt P9WMF9); assay: EMSA
[2] = molecular target: DosR K182R K182R (Mycobacterium tuberculosis H37Rv) (UniProt P9WMF9); assay: EMSA

Sequence: TTGATGCCTCCTAATCGATGGAAACGGATGCCTTTGATCCGACCAGCCCATCGTGGCCAGGGCTAGGGACAGAAGTCCCCGAAGCGCGGGCCATTTGTCCGCGCCCGTCGGTGATCCACTTGGGGACCATTGACCCTGTTGTCTGCCA (double strand) [acr promoter fragment]
- binding [1]: binds more weakly
- binding [2]: binds
